Measurements published in article PMC6761149.

How the values were obtained:
[1] = biological target: light-dependent protochlorophyllide oxidoreductase of Thermosynechococcus elongatus BP-1 (TeLPOR) (Thermosynechococcus elongatus BP-1) (UniProt Q8DLC1); test: AUC; sedimentation velocity with multiwavelength absorbance optics (MWA-AUC), 20 °C, 50 krpm, c(s) model in SEDFIT; apoprotein (no NADPH, no Pchlide), 0.615 mg ml^-1 (1.23 mg ml^-1 diluted to half with reaction buffer)
[2] = biological target: light-dependent protochlorophyllide oxidoreductase of Thermosynechococcus elongatus BP-1 (TeLPOR) (Thermosynechococcus elongatus BP-1) (UniProt Q8DLC1); test: SAXS; ESRF BM29, 10 °C, 20 mM Tris/HCl pH 7.5, 500 mM NaCl, 20% (v/v) glycerol; apoprotein (no NADPH, no Pchlide), concentration series, apo 2 dataset merged from low and high concentration; dimer content assuming only monomers and dimers

Substance: light-dependent protochlorophyllide oxidoreductase of Thermosynechococcus elongatus BP-1 (TeLPOR) (from UniProt Q8DLC1 1-322) (enzyme)
- percent dimers (apoprotein, without NADPH and Pchlide) [1]: 3.6%
- dimer content (%) from I(0) (apoprotein, without NADPH and Pchlide) [2]: 0%
- dimer content (%) from Vp (apoprotein, without NADPH and Pchlide) [2]: 1.7%
